Literature values in patent US7745390B2, “Antimicrobial peptides” (priority 2005, dated 2010).

System: E. coli
Settings: previously reported; cited from earlier work

B1: recombinant granulysin: protein expressed by human cytotoxic T lymphocytes and natural killer cells, recombinant form (protein, UniProt P22749 23-145, looked up)
Granulysin: RLSPEYYDLARAHLRDEEKSCPCLAQEGPQGDLLTKTQELGRDYRTCLTIVQKLKKMVDKPTQRSVSNAATRVCRTGRSRWRDVCRNFMRRYQSRVTQGLVAGETAQQICEDLRLCIPSTGPL
  activity depending on ionic strength of media: completely loses activity in media>50 mM salt
